Data from US20100041597A1 (published 2010).

T1: PKC-ι (endogenous, human cell extracts) (human, UniProt P41743 2-596)
T1 construct: also called PKC-iota
T1 sequence (looked up): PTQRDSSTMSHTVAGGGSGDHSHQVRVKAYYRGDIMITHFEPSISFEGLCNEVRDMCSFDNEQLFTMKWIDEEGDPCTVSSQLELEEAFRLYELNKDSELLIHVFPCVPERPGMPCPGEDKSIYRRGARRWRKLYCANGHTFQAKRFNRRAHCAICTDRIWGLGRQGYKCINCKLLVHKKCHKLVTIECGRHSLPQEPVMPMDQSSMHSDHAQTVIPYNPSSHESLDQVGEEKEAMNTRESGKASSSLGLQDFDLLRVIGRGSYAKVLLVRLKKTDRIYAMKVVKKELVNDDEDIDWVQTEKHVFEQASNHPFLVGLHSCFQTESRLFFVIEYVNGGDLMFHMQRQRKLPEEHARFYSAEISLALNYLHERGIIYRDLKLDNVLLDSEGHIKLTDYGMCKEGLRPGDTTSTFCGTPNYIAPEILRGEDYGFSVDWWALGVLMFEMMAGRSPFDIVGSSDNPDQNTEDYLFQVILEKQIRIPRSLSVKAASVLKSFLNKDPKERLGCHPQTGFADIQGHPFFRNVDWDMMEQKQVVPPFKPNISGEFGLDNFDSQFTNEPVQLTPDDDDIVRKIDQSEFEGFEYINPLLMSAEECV

T2: PKC-ζ (purified isoform) (Homo sapiens (Human), UniProt Q05513 1-592)
T2 construct: also called PKC-zeta; PKCzeta
T2 sequence: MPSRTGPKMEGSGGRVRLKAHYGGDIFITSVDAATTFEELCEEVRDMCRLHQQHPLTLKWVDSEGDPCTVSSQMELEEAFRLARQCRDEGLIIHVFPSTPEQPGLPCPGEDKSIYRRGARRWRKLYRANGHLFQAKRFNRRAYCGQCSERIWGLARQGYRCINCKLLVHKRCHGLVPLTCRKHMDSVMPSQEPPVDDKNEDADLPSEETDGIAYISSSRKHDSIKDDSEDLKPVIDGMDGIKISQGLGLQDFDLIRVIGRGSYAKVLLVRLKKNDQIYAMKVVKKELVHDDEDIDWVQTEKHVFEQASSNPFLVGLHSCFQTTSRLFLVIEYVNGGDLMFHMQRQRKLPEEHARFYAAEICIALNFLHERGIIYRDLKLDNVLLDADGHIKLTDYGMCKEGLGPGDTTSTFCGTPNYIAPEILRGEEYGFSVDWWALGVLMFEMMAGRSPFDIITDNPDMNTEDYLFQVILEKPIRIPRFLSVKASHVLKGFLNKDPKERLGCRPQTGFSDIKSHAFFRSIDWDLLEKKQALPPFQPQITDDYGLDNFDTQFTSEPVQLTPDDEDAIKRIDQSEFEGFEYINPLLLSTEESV

B1: PRE 6 (peptide)
peptide: Ac-KDANQLIGISI-NH2
notes: Synthetic peptide; also called peptide PRE 6
B2: PRE 13 (peptide)
peptide: Ac-RDAQNLI-NH2
notes: Synthetic peptide; also called peptide PRE 13; Ac-RDAQNLI-NH2
B3: PRE 7 (peptide)
peptide: Ac-ISIGILQNADK-NH2
notes: Synthetic peptide (retro form of PRE 4); also called peptide PRE 7
B4: PRE 4 (peptide)
peptide: Ac-KDAQNLIGISI-NH2
notes: Synthetic peptide; also called peptide PRE 4
B5: PRE 3 (peptide)
peptide: Ac-AKGIQEVKGGDAQNLIGISI-NH2
notes: Synthetic peptide; also called peptide PRE 3
B6: PRE 11 (peptide)
peptide: Ac-RDAQNLIGISI-NH2
notes: Synthetic peptide; also called peptide PRE 11
B7: PRE 12 (peptide)
peptide: Ac-KDAQNLI-NH2
notes: Synthetic peptide; also called peptide PRE 12; Ac-KDAQNLI-NH2

biological target: T1, PKC-ι (endogenous, human cell extracts); assay: Western-blot competition on cell extracts against the anti-PKC-ι primary antibody; band densitometry
Method: Binding efficiency and specificity of the peptides PRE 2, 3, 4, 5, 6, 7, 8, 9, 10, 11, 12 and 13 (see Table 3) was also tested using cytoplasmic extracts from different cell lines expressing appropriate PKC isoforms as described for Example 1. Briefly, the protein cytoplasmic extracts were separated by electrophoresis and transferred onto nitrocellulose membranes by standard Western blotting procedures. The bands on the Western blots were detected with matching primary antibodies and alkaline phosphatase conjugated secondary antibody. The bands were then scanned and the relative density measurements obtained.
This procedure to assess the binding characteristics of the PREs is based on competition binding of the PRE with the primary anti-isoform PKC specific antibodies. The lower the measured band density, the greater the binding of the PRE to the PKC isoform. The PREs were added at 10 and 20 times (10×, 20×) the primary antibody concentration, according to classical competition between antigenic peptide and primary antibody. The following cell lines (obtained from the ATCC) were used: H661—NCI human lung carcinoma NSCLC; MDAMB231—human highly invasive breast cancer cell line from pleural effusion; LS180—human colon adenocarcinoma; LnCAP—human prostate adenocarcinoma; CCD16Lu—human lung fibroblasts; Du145—human prostate carcinoma brain metastasis, and T24—human bladder carcinoma.

B1: no binding (tested: 20X the primary antibody concentration).
B2: no binding (tested: 20X the primary antibody concentration).
B3: no binding (tested: 20X the primary antibody concentration).

biological target: T3, PKC-βII (purified isoform) (Homo sapiens (Human), UniProt P05771 2-621); assay: competitive ELISA on purified PKC-βII vs anti-PKC-βII Ab; PRE 100 µM
T3 construct: also called PKC-beta II
T3 sequence (P05771 other isoform, or with tags, fused parts or gaps limits assumed): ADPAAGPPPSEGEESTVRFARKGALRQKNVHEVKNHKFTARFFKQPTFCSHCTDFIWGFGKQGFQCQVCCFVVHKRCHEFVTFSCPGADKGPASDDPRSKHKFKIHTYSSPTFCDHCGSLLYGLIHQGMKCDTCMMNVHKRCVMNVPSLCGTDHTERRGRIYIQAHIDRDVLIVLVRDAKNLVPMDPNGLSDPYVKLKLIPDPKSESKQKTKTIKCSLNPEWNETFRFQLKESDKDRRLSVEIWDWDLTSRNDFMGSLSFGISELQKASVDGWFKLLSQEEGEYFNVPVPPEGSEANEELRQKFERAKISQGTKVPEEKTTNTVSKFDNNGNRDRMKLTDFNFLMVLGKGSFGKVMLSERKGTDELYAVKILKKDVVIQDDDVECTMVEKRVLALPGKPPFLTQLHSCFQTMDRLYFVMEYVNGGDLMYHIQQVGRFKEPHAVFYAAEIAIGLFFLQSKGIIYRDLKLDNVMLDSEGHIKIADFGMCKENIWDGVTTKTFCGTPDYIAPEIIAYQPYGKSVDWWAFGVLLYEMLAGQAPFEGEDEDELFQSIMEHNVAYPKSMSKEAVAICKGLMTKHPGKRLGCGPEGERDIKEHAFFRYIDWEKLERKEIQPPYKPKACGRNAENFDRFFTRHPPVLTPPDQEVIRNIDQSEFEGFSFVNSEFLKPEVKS
Method: (§1) Greiner 96 well ELISA plates were coated with the appropriate PKC isoform diluted in PBSN (PBS with Calcium/Magnesium+0.05% Sodium azide w/w). 50 μL/well at 250 ng/mL was used. Control wells contained PBSN only. Plates were incubated overnight at 4° C.
(§2) The plates were washed 3 times with 200 μL of dH₂O per well, then 100 μL of blocking solution was added per well and the plate incubated for 1 h at 37° C. The washing steps with dH₂O were repeated and 50 μL of the appropriate PRE solution (PRE stock solution [20 mM in DMSO] diluted in PBSN) was added and the plate incubated for 1 h at room temperature.
(§3) 50 μL of 1:1000 dilution of Alkaline Phosphatase (AP) conjugated antibody (anti-rabbit for all except zeta, which was anti-goat) was then added and the plate incubated for 1 h at room temperature. Washing with dH₂O was then repeated. Finally, 100 μL of pNPP solution in pNPP buffer (2 mM MgCl₂, 100 mM Sodium bicarbonate in water, pH 9.8) was added to all wells and incubated for 8 minutes for α, βI, βII ε, and ζ, or for 15-20 mins for […] (until sufficient coloration is observed). The reaction was stopped by addition of Stop solution (2N NaOH) and the absorbance at 405 nm was read on a Galaxy Plate reader.

In order of rising “binding capacity (%)” value:
1. B1  0%
2. B2  1.63%
3. B4  13.5%

biological target: T3, PKC-βII (purified isoform); assay: competitive ELISA on purified PKC-βII vs anti-PKC-βII Ab; PRE 200 µM
Method: as §1, §2, §3

In order of falling “binding capacity (%)” value:
1. B4  1.18%
2. B1  0%
3. B2  0%

biological target: T4, PKC-α (purified isoform) (Homo sapiens (Human), UniProt P17252 2-672); assay: competitive ELISA on purified PKC-α vs anti-PKC-α Ab; PRE 50 µM
T4 construct: also called PKC-alpha; PKCalpha
Method: as §1, §2, §3

In order of rising “binding capacity (%)” value:
1. B6  0%
2. B3  0%
3. B7  3.29%
4. B4  6.46%
5. B5  17.5%

biological target: T2, PKC-ζ (purified isoform); assay: summary grade, purified isoform ELISA

B1: no binding (tested: 200 µM).
B6: no binding (tested: 200 µM).
B2: no binding (tested: 200 µM).

biological target: T3, PKC-βII (purified isoform); assay: competitive ELISA on purified PKC-βII vs anti-PKC-βII Ab; PRE 50 µM
Method: as §1, §2, §3

In order of falling “binding capacity (%)” value:
1. B4  2.69%
2. B1  0.08%
3. B2  0%
